# B1: 5'-recessed-end substrate (gap mimic) (dsDNA)
# DNA 1: TCGACTAGCG
# DNA 2: CGCTAGTCGACAC
# modifications: 5' phosphate on strand 1
# Target: hExo1 catalytic domain D173A (Homo sapiens, UniProt Q9UQ84 1-352, D173A)
# Test: crystal structure
# Chain of hExo1 catalytic domain D173A (Q9UQ84 1-352 D173A): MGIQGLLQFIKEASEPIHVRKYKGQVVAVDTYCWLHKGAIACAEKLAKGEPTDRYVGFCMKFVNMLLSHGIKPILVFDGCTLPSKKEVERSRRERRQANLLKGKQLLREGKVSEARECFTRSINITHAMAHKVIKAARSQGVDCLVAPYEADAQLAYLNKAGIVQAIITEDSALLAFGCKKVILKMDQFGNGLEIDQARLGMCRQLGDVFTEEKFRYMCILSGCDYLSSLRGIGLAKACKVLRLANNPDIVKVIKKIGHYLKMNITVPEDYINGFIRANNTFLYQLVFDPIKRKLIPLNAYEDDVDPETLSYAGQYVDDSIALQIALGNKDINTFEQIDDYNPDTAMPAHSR
binder,measurement,value
B1,binding result,binds
